Data set [1] has as its target Chlamydomonas reinhardtii ATG3, wild type (Chlamydomonas reinhardtii). The experiment in a line: non-reducing SDS-PAGE; purified ATG3 (about 2.5-3 ug) in 50 mM Tris-HCl pH 7.5, 25 °C, untreated or treated with DTTred, GSH, DTTox, H2O2 or Cu2+; stopped with βME-free loading buffer, 5 min at 65 °C; 12% or 15% gels, Coomassie; monomer against disulfide-linked dimer.
Data set [2] deals with the molecule itself. The data set is described as above.

The values that follow come from PMC10756753, “Redox-mediated activation of ATG3 promotes ATG8 lipidation and autophagy progression in Chlamydomonas reinhardtii” (Plant Physiology, 2023).

Turning to “Chlamydomonas reinhardtii ATG3, wild type (enzyme)”, in data set [1], the stoichiometry N – broadly, the number of molecules, sites or subunits per partner or assembly – is 2.

B1: Saccharomyces cerevisiae ATG3, wild type (enzyme, UniProt P40344 1-310, looked up)
chain: MIRSTLSSWREYLTPITHKSTFLTTGQITPEEFVQAGDYLCHMFPTWKWNEESSDISYRDFLPKNKQFLIIRKVPCDKRAEQCVEVEGPDVIMKGFAEDGDEDDVLEYIGSETEHVQSTPAGGTKDSSIDDIDELIQDMEIKEEDENDDTEEFNAKGGLAKDMAQERYYDLYIAYSTSYRVPKMYIVGFNSNGSPLSPEQMFEDISADYRTKTATIEKLPFYKNSVLSVSIHPCKHANVMKILLDKVRVVRQRRRKELQEEQELDGVGDWEDLQDDIDDSLRVDQYLIVFLKFITSVTPSIQHDYTMEGW
notes: ATG3 (E2-like enzyme of the ATG8 conjugation system), Saccharomyces cerevisiae; catalytic Cys234; also called ScATG3; ScATG3^WT
Turning to B1, in data set [2], the “stoichiometry N” value came out at 2.
